Tests used:
Assay in all cases: cell-based or functional assay
[1] = molecular target: HIV-1 Env of pseudovirus 1006_11_C3_1601 (HIV-1)
[2] = molecular target: HIV-1 Env of pseudovirus 211-9 (HIV-1)
[3] = molecular target: HIV-1 Env of pseudovirus 231966.c02 (HIV-1)
[4] = molecular target: HIV-1 Env of pseudovirus 246F C1G (HIV-1)
[5] = molecular target: HIV-1 Env of pseudovirus 620345.c01 (HIV-1)
[6] = molecular target: HIV-1 Env of pseudovirus 6244_13_B5_4576 (HIV-1)
[7] = molecular target: HIV-1 Env of pseudovirus 6545.v4.c1 (HIV-1)
[8] = molecular target: HIV-1 Env of pseudovirus 6811.v7.c18 (HIV-1)
[9] = molecular target: HIV-1 Env of pseudovirus 7030102001E5(Rev-) (HIV-1)
[10] = molecular target: HIV-1 Env of pseudovirus AC10.0.29 (HIV-1)
[11] = molecular target: HIV-1 Env of pseudovirus BF1266.431a (HIV-1)
[12] = molecular target: HIV-1 Env of pseudovirus BJOX010000.06.2 (HIV-1)
[13] = molecular target: HIV-1 Env of pseudovirus C2101.c01 (HIV-1)
[14] = molecular target: HIV-1 Env of pseudovirus CAAN5342.A2 (HIV-1)
[15] = molecular target: HIV-1 Env of pseudovirus CAP210.2.00.E8 (HIV-1)
[16] = molecular target: HIV-1 Env of pseudovirus CNE19 (HIV-1)
[17] = molecular target: HIV-1 Env of pseudovirus CNE21 (HIV-1)
[18] = molecular target: HIV-1 Env of pseudovirus CNE52 (HIV-1)
[19] = molecular target: HIV-1 Env of pseudovirus Ce1172_H1 (HIV-1)
[20] = molecular target: HIV-1 Env of pseudovirus Ce2010_F5 (HIV-1)
[21] = molecular target: HIV-1 Env of pseudovirus Ce703010054_2A2 (HIV-1)
[22] = molecular target: HIV-1 Env of pseudovirus HIV-16845-2.22 (HIV-1)
[23] = molecular target: HIV-1 Env of pseudovirus MS208.A1 (HIV-1)
[24] = molecular target: HIV-1 Env of pseudovirus P0402_c2_11 (HIV-1)
[25] = molecular target: HIV-1 Env of pseudovirus P1981_C5_3 (HIV-1)
[26] = molecular target: HIV-1 Env of pseudovirus Q259.d2.17 (HIV-1)
[27] = molecular target: HIV-1 Env of pseudovirus R1166.c01 (HIV-1)
[28] = molecular target: HIV-1 Env of pseudovirus R3265.c06 (HIV-1)
[29] = molecular target: HIV-1 Env of pseudovirus REJO4541.67 (HIV-1)
[30] = molecular target: HIV-1 Env of pseudovirus RHPA4259.7 (HIV-1)
[31] = molecular target: HIV-1 Env of pseudovirus T255-34 (HIV-1)
[32] = molecular target: HIV-1 Env of pseudovirus THRO4156.18 (HIV-1)
[33] = molecular target: HIV-1 Env of pseudovirus WEAU_d15_410_787 (HIV-1)
[34] = molecular target: HIV-1 Env of pseudovirus WITO4160.33 (HIV-1)
[35] = molecular target: HIV-1 Env of pseudovirus ZM135M.PL10a (HIV-1)
[36] = molecular target: HIV-1 Env of pseudovirus ZM249M.PL1 (HIV-1)

In the case of NIH 45-46 (antibody), the neutralization IC50 [1] is reported as 0.05 µg/mL, the neutralization IC80 [1] is reported as 0.31 µg/mL and the IC50, titer in TZM.bl cells [2] is reported as over 50 µg/mL. The IC80, titer in TZM.bl cells [2] was over 50 µg/mL, the IC50, titer in TZM.bl cells [3] was 1.11 µg/mL and the IC80, titer in TZM.bl cells [3] was 11.4 µg/mL. For the same substance, the neutralization IC50 [4] was over 50 µg/mL, the neutralization IC80 [4] was over 50 µg/mL and the IC50, titer in TZM.bl cells [5] was over 30 µg/mL. For the same substance, the IC80, titer in TZM.bl cells [5] was over 30 µg/mL, the neutralization IC50 [6] was 0.07 µg/mL and the neutralization IC80 [6] was 0.26 µg/mL. For the same substance, the IC50, titer in TZM.bl cells [7] was over 50 µg/mL, the IC80, titer in TZM.bl cells [7] was over 50 µg/mL and the IC50, titer in TZM.bl cells [8] was 0.03 µg/mL. For the same substance, the IC80, titer in TZM.bl cells [8] was 0.13 µg/mL, the neutralization IC50 [9] was 0.14 µg/mL and the neutralization IC80 [9] was 0.63 µg/mL. It also gave a neutralization IC50 [10] of 0.42 µg/mL, a neutralization IC80 [10] of 1.49 µg/mL and a neutralization IC50 [11] of 0.01 µg/mL. It also gave a neutralization IC80 [11] of 0.03 µg/mL, an IC50, titer in TZM.bl cells [12] of 0.87 µg/mL and an IC80, titer in TZM.bl cells [12] of 6.37 µg/mL. For the same substance, the IC50, titer in TZM.bl cells [13] was 12.8 µg/mL, the IC80, titer in TZM.bl cells [13] was over 50 µg/mL and the neutralization IC50 [14] was 0.11 µg/mL. For the same substance, the neutralization IC80 [14] was 0.33 µg/mL, the neutralization IC50 [15] was over 50 µg/mL and the neutralization IC80 [15] was over 50 µg/mL. The neutralization IC50 [16] was 0.07 µg/mL, the neutralization IC80 [16] was 0.37 µg/mL and the neutralization IC50 [17] was 7.53 µg/mL. It also gave a neutralization IC80 [17] of over 50 µg/mL, a neutralization IC50 [18] of 0.03 µg/mL and a neutralization IC80 [18] of 0.12 µg/mL. It also gave a neutralization IC50 [19] of over 50 µg/mL, a neutralization IC80 [19] of over 50 µg/mL and a neutralization IC50 [20] of 0.13 µg/mL. For the same substance, the neutralization IC80 [20] was 0.43 µg/mL, the neutralization IC50 [21] was 0.22 µg/mL and the neutralization IC80 [21] was 0.97 µg/mL. For the same substance, the neutralization IC50 [22] was 2.05 µg/mL, the neutralization IC80 [22] was 12.1 µg/mL and the neutralization IC50 [23] was 0.09 µg/mL. The neutralization IC80 [23] was 0.6 µg/mL, the IC50, titer in TZM.bl cells [24] was 0.06 µg/mL and the IC80, titer in TZM.bl cells [24] was 0.26 µg/mL. It also gave an IC50, titer in TZM.bl cells [25] of 0.05 µg/mL, an IC80, titer in TZM.bl cells [25] of 0.22 µg/mL and a neutralization IC50 [26] of 0.01 µg/mL. It also gave a neutralization IC80 [26] of 0.06 µg/mL, an IC50, titer in TZM.bl cells [27] of 1.68 µg/mL and an IC80, titer in TZM.bl cells [27] of 1.68 µg/mL. For the same substance, the IC50, titer in TZM.bl cells [28] was 0.04 µg/mL, the IC80, titer in TZM.bl cells [28] was 0.44 µg/mL and the neutralization IC50 [29] was 0.003 µg/mL. It also gave a neutralization IC80 [29] of 0.01 µg/mL, a neutralization IC50 [30] of under 0.05 µg/mL and a neutralization IC80 [30] of under 0.05 µg/mL. The IC50, titer in TZM.bl cells [31] was 0.23 µg/mL, the IC80, titer in TZM.bl cells [31] was 2.38 µg/mL and the neutralization IC50 [32] was 1.59 µg/mL. It also gave a neutralization IC80 [32] of 6.02 µg/mL, a neutralization IC50 [33] of 0.01 µg/mL and a neutralization IC80 [33] of 0.03 µg/mL. For the same substance, the neutralization IC50 [34] was 0.01 µg/mL, the neutralization IC80 [34] was 0.08 µg/mL and the neutralization IC50 [35] was 0.36 µg/mL. For the same substance, the neutralization IC80 [35] was 3.11 µg/mL, the neutralization IC50 [36] was 0.02 µg/mL and the neutralization IC80 [36] was 0.06 µg/mL.
Work on 3BNC117 (antibody) yielded a neutralization IC50 [1] of 0.03 µg/mL, a neutralization IC80 [1] of 0.1 µg/mL and an IC50, titer in TZM.bl cells [2] of 0.35 µg/mL. For the same substance, the IC80, titer in TZM.bl cells [2] was 1.28 µg/mL, the IC50, titer in TZM.bl cells [3] was 0.29 µg/mL and the IC80, titer in TZM.bl cells [3] was 2.37 µg/mL. For the same substance, the neutralization IC50 [4] was 19.3 µg/mL, the neutralization IC80 [4] was over 50 µg/mL and the IC50, titer in TZM.bl cells [5] was over 15 µg/mL. For the same substance, the IC80, titer in TZM.bl cells [5] was over 15 µg/mL, the neutralization IC50 [6] was 0.04 µg/mL and the neutralization IC80 [6] was 0.15 µg/mL. The IC50, titer in TZM.bl cells [7] was over 50 µg/mL, the IC80, titer in TZM.bl cells [7] was over 50 µg/mL and the IC50, titer in TZM.bl cells [8] was 0.03 µg/mL. It also gave an IC80, titer in TZM.bl cells [8] of 0.17 µg/mL, a neutralization IC50 [9] of 0.29 µg/mL and a neutralization IC80 [9] of 1.44 µg/mL. For the same substance, the neutralization IC50 [10] was 13.8 µg/mL, the neutralization IC80 [10] was over 50 µg/mL and the neutralization IC50 [11] was 0.03 µg/mL. It also gave a neutralization IC80 [11] of 0.09 µg/mL, an IC50, titer in TZM.bl cells [12] of 1.58 µg/mL and an IC80, titer in TZM.bl cells [12] of 10.4 µg/mL. It also gave an IC50, titer in TZM.bl cells [13] of 0.05 µg/mL, an IC80, titer in TZM.bl cells [13] of 0.31 µg/mL and a neutralization IC50 [14] of 0.42 µg/mL. For the same substance, the neutralization IC80 [14] was 1.51 µg/mL, the neutralization IC50 [15] was 17.2 µg/mL and the neutralization IC80 [15] was over 50 µg/mL. For the same substance, the neutralization IC50 [16] was 0.02 µg/mL, the neutralization IC80 [16] was 0.08 µg/mL and the neutralization IC50 [17] was 45.4 µg/mL. The neutralization IC80 [17] was over 50 µg/mL, the neutralization IC50 [18] was 0.02 µg/mL and the neutralization IC80 [18] was 0.06 µg/mL. The neutralization IC50 [19] was over 50 µg/mL, the neutralization IC80 [19] was over 50 µg/mL and the neutralization IC50 [20] was 0.05 µg/mL. For the same substance, the neutralization IC80 [20] was 0.21 µg/mL, the neutralization IC50 [21] was 0.37 µg/mL and the neutralization IC80 [21] was 1.67 µg/mL. For the same substance, the neutralization IC50 [22] was 27.5 µg/mL, the neutralization IC80 [22] was over 50 µg/mL and the neutralization IC50 [23] was 0.01 µg/mL. It also gave a neutralization IC80 [23] of 0.09 µg/mL, an IC50, titer in TZM.bl cells [24] of 0.06 µg/mL and an IC80, titer in TZM.bl cells [24] of 0.38 µg/mL. It also gave an IC50, titer in TZM.bl cells [25] of 0.74 µg/mL, an IC80, titer in TZM.bl cells [25] of 3.62 µg/mL and a neutralization IC50 [26] of 0.01 µg/mL. For the same substance, the neutralization IC80 [26] was 0.05 µg/mL, the IC50, titer in TZM.bl cells [27] was 0.17 µg/mL and the IC80, titer in TZM.bl cells [27] was 0.64 µg/mL. It also gave an IC50, titer in TZM.bl cells [28] of 0.48 µg/mL, an IC80, titer in TZM.bl cells [28] of 13 µg/mL and a neutralization IC50 [29] of 0.01 µg/mL. For the same substance, the neutralization IC80 [29] was 0.05 µg/mL, the neutralization IC50 [30] was under 0.09 µg/mL and the neutralization IC80 [30] was under 0.09 µg/mL. For the same substance, the IC50, titer in TZM.bl cells [31] was 0.02 µg/mL, the IC80, titer in TZM.bl cells [31] was 0.14 µg/mL and the neutralization IC50 [32] was 1.76 µg/mL. It also gave a neutralization IC80 [32] of 10.1 µg/mL, a neutralization IC50 [33] of 0.05 µg/mL and a neutralization IC80 [33] of 0.19 µg/mL. The neutralization IC50 [34] was 0.01 µg/mL, the neutralization IC80 [34] was 0.04 µg/mL and the neutralization IC50 [35] was 0.03 µg/mL. It also gave a neutralization IC80 [35] of 0.13 µg/mL, a neutralization IC50 [36] of 0.03 µg/mL and a neutralization IC80 [36] of 0.11 µg/mL.
